Like-named read-outs stand apart in the source and are kept apart here.
Assays:
[1] = molecular target: T1, interleukin-1 receptor accessory protein (IL1RAP), antigen of the ELISA and phage selection (UniProt Q9NPH3 21-367, limits assumed); assay: ELISA, scFv-Fc on IL1RAP
T1 sequence (looked up): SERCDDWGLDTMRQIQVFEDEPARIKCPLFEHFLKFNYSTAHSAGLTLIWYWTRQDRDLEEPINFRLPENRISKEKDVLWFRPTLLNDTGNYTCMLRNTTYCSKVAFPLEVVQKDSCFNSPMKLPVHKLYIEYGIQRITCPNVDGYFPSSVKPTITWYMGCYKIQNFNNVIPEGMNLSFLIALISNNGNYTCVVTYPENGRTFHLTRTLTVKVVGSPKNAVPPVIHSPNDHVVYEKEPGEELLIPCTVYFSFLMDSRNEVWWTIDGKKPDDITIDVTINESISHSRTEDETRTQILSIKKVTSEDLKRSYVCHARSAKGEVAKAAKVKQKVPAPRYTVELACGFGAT

[2] = molecular target: T1, interleukin-1 receptor accessory …; assay: ELISA, scFv-Fc on IL1RAP; remark: listed apart in the source
[3] = molecular target: T2, interleukin-1 receptor accessory protein (IL1RAP) on AML target cells (human, UniProt Q9NPH3 21-570); assay: cell-based or functional assay
T2 sequence (looked up): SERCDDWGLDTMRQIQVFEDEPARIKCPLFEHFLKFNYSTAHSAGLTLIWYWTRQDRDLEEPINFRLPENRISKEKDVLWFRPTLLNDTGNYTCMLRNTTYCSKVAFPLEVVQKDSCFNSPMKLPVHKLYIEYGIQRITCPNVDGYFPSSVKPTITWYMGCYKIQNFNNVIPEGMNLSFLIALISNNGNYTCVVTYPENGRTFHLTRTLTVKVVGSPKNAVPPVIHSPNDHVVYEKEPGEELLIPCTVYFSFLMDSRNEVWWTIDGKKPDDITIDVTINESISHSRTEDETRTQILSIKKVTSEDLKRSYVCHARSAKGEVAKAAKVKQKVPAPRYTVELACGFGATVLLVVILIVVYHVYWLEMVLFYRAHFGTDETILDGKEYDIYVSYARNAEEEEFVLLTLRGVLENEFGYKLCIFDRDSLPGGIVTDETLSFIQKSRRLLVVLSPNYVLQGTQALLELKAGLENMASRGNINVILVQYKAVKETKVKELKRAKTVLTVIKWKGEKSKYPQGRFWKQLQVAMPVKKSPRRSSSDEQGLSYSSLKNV

EC50 [1]: 85.4 µg/mL | EC50 [2]: 854 nM | cell lysis %-1 [3]: 27.2% | cell lysis %-2 [3]: 28.7% | cell lysis %-3 [3]: 23.7% | cell lysis %-average [3]: 26.5%
B1: anti-IL1RAP antibody clone 2E12 (Fc fusion)
VH: PGAAAGVGGGLVQPGGSLRLSCEASGFTFSRYWMHWVRQAPGKGLVWVSRIHTDGSSISYADSVKGRFTISRDNAKNTLYLQMNSLRAEDTAVYYCARDIGGGYSYGSVDYWGQGTLVTVSS
VL: QPVLTQSPSVSVAPGKTTRITCGGDNIGSKSVHWFQQKPGQAPVLVVFGGGDRPSGIPERFSGSNSGNTATLIISGVEGGDEADYYCQVWDGSTDHYIFGAGTMVTVL
notes: Tested as scFv-Fc

— patent US20220306750A1 (CITY OF HOPE, published 2022)
